Reference: the supplement of paper PMC10065799, “High-throughput profiling of sequence recognition by tyrosine kinases and SH2 domains using bacterial peptide display” (eLife, 2023)

What was measured:
[1] = target: c-Src SH2; test: SH2 binding enrichment of the phosphorylated peptide, bacterial display (enrichment ratio); higher = better substrate or ligand; peptides without Tyr show the background
[2] = target: SHP2-C SH2; test: as above
[3] = target: Grb2 SH2 (UniProt P62993); test: as above
[4] = target: EPHB2 (UniProt P29323); test: phosphorylation enrichment, bacterial display (enrichment ratio); higher = better substrate or ligand; peptides without Tyr show the background
[5] = target: Hck (UniProt P08631); test: as above
[6] = target: Fyn (UniProt P06241); test: as above
[7] = system: AncSZ; test: as above
[8] = system: c-Abl (mouse); test: as above
[9] = target: Jak2 (UniProt O60674); test: as above
[10] = target: EPHB1 (UniProt P54762); test: as above
[11] = system: Fer (mouse); test: as above
[12] = target: MERTK (UniProt Q12866); test: as above
[13] = target: FGFR1 (UniProt P11362); test: as above
[14] = target: FGFR3 (UniProt P22607); test: as above
[15] = system: c-Src; test: as above
[16] = target: Fes (UniProt P07332); test: as above
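Throughout, for SH2 binding enrichment of the phosphorylated peptide, bacterial display: peptide library displayed on the E. coli surface as eCPX fusions, selected cells deep-sequenced, score is each peptide's frequency after selection divided by its frequency in the input.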
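Throughout, for phosphorylation enrichment, bacterial display: 11-residue human phosphosite peptides and single-mutation variants displayed on the E. coli surface, counted by deep sequencing, each peptide's frequency after selection divided by its frequency in the unselected input library; frequency after pTyr selection over input frequency; kinase dosed for 20-30% of maximal phosphorylation in three min.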

Grb2 SH2, sequence (P62993 whole entry, looked up): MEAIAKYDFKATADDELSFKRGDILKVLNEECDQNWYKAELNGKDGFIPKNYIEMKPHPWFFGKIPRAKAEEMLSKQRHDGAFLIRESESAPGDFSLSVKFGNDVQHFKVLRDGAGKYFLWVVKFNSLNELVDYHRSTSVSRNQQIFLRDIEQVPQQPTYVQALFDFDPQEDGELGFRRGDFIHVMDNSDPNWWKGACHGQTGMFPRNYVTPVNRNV
MERTK, sequence (Q12866 whole entry, looked up): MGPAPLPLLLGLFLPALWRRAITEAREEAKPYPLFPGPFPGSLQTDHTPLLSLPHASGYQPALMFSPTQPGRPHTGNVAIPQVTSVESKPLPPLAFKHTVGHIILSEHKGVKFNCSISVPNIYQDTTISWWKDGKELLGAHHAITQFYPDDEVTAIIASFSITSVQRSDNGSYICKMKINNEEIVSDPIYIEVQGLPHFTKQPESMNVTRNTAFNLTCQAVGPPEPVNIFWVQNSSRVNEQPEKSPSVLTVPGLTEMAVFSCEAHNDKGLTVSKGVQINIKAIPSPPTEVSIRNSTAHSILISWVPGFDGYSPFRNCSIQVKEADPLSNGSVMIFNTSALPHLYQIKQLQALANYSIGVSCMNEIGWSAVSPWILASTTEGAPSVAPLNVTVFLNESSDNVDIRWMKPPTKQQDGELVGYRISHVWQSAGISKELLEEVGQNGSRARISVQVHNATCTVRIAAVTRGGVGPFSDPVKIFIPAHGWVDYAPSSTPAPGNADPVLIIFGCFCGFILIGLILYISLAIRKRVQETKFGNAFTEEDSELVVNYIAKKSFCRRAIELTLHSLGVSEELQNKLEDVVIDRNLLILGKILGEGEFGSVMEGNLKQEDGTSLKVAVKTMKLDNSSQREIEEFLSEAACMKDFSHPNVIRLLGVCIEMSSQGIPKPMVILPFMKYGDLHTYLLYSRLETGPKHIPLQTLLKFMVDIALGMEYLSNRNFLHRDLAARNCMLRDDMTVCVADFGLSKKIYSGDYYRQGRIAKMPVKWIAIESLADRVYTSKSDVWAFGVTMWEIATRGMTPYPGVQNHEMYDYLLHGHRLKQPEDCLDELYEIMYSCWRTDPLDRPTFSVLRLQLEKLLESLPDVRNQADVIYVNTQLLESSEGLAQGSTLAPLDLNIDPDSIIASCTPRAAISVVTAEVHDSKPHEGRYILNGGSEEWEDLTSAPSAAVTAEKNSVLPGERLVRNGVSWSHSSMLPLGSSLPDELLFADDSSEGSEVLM
EPHB2, sequence (P29323 whole entry, looked up): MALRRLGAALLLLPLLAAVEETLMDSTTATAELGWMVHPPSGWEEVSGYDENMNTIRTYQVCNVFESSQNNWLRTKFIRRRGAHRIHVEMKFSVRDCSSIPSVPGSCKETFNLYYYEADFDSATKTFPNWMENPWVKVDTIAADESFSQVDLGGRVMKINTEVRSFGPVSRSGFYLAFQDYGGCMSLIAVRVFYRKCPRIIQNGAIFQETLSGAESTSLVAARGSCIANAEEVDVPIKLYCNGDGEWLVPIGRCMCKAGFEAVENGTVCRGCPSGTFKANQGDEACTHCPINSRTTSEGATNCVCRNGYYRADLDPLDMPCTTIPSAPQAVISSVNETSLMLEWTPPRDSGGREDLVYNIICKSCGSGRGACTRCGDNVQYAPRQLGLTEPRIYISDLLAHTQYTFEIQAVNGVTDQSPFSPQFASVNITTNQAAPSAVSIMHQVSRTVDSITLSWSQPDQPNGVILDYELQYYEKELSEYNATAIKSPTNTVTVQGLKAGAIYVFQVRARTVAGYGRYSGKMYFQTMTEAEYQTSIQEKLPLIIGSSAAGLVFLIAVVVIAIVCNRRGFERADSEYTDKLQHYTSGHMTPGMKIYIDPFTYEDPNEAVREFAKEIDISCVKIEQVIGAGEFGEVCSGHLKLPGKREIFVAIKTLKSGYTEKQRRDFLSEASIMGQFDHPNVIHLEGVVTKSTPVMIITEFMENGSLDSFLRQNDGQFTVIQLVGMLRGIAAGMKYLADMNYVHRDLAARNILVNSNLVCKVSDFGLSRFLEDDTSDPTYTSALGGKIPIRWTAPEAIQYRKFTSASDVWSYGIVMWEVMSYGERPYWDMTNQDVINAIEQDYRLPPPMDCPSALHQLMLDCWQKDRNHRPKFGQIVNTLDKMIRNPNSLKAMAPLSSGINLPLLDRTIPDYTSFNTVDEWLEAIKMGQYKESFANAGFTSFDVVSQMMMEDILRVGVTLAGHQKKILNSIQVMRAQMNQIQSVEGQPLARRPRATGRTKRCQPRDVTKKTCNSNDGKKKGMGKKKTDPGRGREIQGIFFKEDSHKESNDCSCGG
Fes, sequence (P07332 whole entry, looked up, the tested form may be a part): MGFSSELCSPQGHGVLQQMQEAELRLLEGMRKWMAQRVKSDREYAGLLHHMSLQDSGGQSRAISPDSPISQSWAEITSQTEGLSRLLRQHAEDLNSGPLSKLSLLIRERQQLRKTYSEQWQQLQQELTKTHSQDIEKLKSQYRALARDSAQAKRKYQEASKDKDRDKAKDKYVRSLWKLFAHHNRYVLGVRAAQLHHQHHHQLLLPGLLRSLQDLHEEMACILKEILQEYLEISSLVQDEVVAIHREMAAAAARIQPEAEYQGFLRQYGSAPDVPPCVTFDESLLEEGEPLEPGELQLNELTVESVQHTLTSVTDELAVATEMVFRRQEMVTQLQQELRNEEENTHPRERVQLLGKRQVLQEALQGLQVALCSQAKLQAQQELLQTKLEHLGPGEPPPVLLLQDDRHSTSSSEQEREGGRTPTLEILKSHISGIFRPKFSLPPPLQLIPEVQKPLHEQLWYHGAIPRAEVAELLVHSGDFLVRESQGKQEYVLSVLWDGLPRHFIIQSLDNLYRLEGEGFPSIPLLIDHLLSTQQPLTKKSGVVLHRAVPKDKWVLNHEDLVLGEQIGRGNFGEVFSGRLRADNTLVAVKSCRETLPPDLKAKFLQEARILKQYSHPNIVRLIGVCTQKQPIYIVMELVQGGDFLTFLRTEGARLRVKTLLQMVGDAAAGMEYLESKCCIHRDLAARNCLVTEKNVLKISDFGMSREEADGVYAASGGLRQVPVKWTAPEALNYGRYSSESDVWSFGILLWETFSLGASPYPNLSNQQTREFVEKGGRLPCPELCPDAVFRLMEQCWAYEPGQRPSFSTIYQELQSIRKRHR
EPHB1, sequence (P54762 whole entry, looked up): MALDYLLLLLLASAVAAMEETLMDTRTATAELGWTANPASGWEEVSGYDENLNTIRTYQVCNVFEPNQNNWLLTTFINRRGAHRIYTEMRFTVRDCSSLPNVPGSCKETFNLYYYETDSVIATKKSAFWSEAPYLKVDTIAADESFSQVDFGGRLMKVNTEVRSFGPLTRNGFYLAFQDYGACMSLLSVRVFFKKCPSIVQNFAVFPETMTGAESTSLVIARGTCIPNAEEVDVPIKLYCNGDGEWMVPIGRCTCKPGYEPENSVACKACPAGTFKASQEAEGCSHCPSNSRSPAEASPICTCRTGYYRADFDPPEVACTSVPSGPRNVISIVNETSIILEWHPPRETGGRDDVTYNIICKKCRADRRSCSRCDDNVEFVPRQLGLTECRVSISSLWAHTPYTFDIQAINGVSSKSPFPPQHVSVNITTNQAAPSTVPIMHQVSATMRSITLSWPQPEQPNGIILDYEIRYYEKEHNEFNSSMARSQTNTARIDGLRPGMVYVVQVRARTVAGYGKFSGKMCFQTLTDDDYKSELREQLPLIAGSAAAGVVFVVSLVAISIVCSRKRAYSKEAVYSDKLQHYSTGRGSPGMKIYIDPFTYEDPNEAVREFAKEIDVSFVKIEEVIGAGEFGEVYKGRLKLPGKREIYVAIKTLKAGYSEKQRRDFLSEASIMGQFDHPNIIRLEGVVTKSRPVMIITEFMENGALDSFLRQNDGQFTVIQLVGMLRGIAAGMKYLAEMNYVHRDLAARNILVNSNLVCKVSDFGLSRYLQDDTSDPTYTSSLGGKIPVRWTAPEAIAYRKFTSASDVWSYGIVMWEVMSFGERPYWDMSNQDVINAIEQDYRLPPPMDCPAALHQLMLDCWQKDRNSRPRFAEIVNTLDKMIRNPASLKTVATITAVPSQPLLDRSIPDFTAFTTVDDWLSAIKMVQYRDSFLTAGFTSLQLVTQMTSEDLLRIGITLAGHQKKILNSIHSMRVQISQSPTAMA
Fyn, sequence (P06241 whole entry, looked up): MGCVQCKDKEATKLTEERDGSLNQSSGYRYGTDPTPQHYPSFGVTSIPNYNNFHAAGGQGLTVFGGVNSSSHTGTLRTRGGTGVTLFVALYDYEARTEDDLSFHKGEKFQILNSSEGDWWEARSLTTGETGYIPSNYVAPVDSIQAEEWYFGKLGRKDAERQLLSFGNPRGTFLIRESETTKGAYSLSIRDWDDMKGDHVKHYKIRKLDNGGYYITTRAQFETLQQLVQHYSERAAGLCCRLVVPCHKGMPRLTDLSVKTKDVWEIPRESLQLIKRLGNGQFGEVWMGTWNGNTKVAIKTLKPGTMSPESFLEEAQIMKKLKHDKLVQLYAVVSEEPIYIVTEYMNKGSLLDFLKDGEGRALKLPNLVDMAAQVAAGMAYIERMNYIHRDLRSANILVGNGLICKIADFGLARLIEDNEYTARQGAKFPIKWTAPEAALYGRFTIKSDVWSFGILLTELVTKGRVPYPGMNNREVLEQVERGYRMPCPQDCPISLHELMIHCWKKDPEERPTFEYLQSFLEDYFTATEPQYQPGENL

Row | Sequence | SH2 binding enrichment [1] | SH2 binding enrichment [2] | SH2 binding enrichment [3] | phosphorylation enrichment [4] | phosphorylation enrichment [5] | phosphorylation enrichment [6] | phosphorylation enrichment [7] | phosphorylation enrichment [8] | phosphorylation enrichment [9] | phosphorylation enrichment [10] | phosphorylation enrichment [11] | phosphorylation enrichment [12] | phosphorylation enrichment [13] | phosphorylation enrichment [14] | phosphorylation enrichment [15] | phosphorylation enrichment [16]
1 | LFSDHYSPSGR [TMPRSS12_Y23_YF] | 0.554 | 0.842 | 0.989 | 0.452 | 0.455 | 0.39 | 0.654 | 0.331 | 0.473 | 0.545 | 0.351 | 0.382 | 0.446 | 0.459 | 0.363 | 0.574
2 | NYRPGYNNFYN [USH2A_Y467] | 0.614 | 0.84 | 0.875 | 0.602 | 0.621 | 0.567 | 0.697 | 0.514 | 0.651 | 0.616 | 0.711 | 0.551 | 0.637 | 0.606 | 0.516 | 0.705
3 | AAGGRYDGLLG [HARS2_Y364_V368L] | 0.545 | 0.633 | 0.785 | 0.415 | 0.459 | 0.548 | 0.631 | 1.01 | 0.645 | 0.471 | 0.452 | 0.451 | 0.457 | 0.531 | 0.468 | 0.85
4 | FQASFYRRGDR [LTK_Y677_R673Q_YF] | 0.295 | 0.38 | 0.411 | 0.486 | 0.501 | 0.55 | 0.717 | 0.647 | 0.441 | 0.443 | 0.495 | 0.511 | 0.532 | 0.523 | 0.525 | 0.688
5 | PPLMLYNPTTF [EGFR_Y270_YF] | 0.278 | 0.785 | 0.931 | 0.891 | 1.13 | 0.692 | 1.34 | 0.79 | 1.03 | 0.973 | 1.25 | 1 | 0.731 | 0.857 | 0.863 | 1.21
6 | NRVEIYDKTVE [CYFIP1_Y108_E109D] | 0.798 | 0.504 | 1.15 | 0.521 | 0.682 | 0.443 | 0.905 | 0.576 | 0.755 | 0.495 | 0.435 | 0.4 | 0.534 | 0.519 | 0.47 | 0.938
7 | KNCFKYYMSDD [ATRX_Y203] | 0.835 | 0.785 | 0.828 | 0.701 | 0.595 | 0.54 | 1.4 | 0.961 | 1.16 | 0.794 | 0.624 | 0.496 | 0.547 | 1.01 | 0.572 | 1.37
8 | VYLGAYDCFLP [SLC22A5_Y486_R488C] | 0.992 | 1.36 | 1.1 | 8.08 | 5.14 | 7.34 | 2.18 | 1.77 | 1.28 | 5.46 | 7.23 | 7.36 | 1.15 | 1.09 | 6.4 | 1.41
9 | LEDEVYAQKMK [TPM2_Y261] | 0.521 | 0.836 | 0.953 | 1.08 | 2.62 | 2.37 | 2.79 | 1.49 | 2.5 | 2.92 | 1.91 | 0.889 | 1.25 | 1.97 | 1.22 | 2.74
10 | LNPDGYKKAYE [CPXM2_Y427_E428K] | 0.444 | 0.613 | 0.744 | 0.749 | 0.515 | 0.676 | 0.905 | 1.35 | 1 | 0.605 | 0.619 | 0.734 | 0.86 | 1.46 | 0.513 | 1.14
11 | FLRKEYGGVNV [CBR3_Y81_L84V] | 0.458 | 0.698 | 0.984 | 0.4 | 0.425 | 0.452 | 0.644 | 0.612 | 0.598 | 0.391 | 0.475 | 0.471 | 0.416 | 0.495 | 0.578 | 0.916
12 | KIVQDYLEKFF [MMP8_Y36_T32I_YF] | 0.691 | 1.19 | 1.08 | 0.595 | 0.773 | 0.614 | 1.19 | 0.956 | 1.02 | 0.662 | 0.65 | 0.512 | 0.616 | 0.808 | 0.556 | 1.38
13 | TLARLYHPDST [LRIG1_Y1029] | 0.372 | 0.681 | 0.646 | 0.549 | 0.416 | 0.575 | 0.508 | 0.672 | 0.609 | 0.422 | 0.364 | 0.355 | 0.344 | 0.429 | 0.302 | 0.743
14 | CEETFYTMKMN [MASP2_Y401_V405M] | 0.575 | 0.657 | 0.771 | 0.894 | 1.09 | 1.59 | 1.99 | 1.3 | 1.83 | 0.939 | 0.935 | 0.829 | 0.666 | 1.11 | 2.6 | 1.87
